Data from PMC10540216, “Activity Guided Azide-methyllysine Photo-trapping for Substrate Profiling of Lysine Demethylases” (Journal of the American Chemical Society, 2023).

These molecules were tested on KDM4A-I71AzF (assay: CASI: photo-crosslinking with HEK293T cell extracts, StrepTactin enrichment and LC-MS/MS proteomics). Conditions: sheet "Final results but with 0.01".
Format: binding, human
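Also: lysates from HEK293T cells pretreated with a KDM4 inhibitor to raise proteome methylation, affinity-purified after ±UV, gel-resolved, trypsin-digested, with exclusive unique peptides per protein averaged per condition.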

Molecule	Fold change (+UV/-UV)
ZC3HE_HUMAN (protein, UniProt Q6PJT7 1-736, looked up) Zinc finger CCCH …: MEIGTEISRKIRSAIKGKLQELGAYVDEELPDYIMVMVANKKSQDQMTEDLSLFLGNNTIRFTVWLHGVLDKLRSVTTEPSSLKSSDTNIFDSNVPSNKSNFSRGDERRHEAAVPPLAIPSARPEKRDSRVSTSSQESKTTNVRQTYDDGAATRLMSTVKPLREPAPSEDVIDIKPEPDDLIDEDLNFVQENPLSQKKPTVTLTYGSSRPSIEIYRPPASRNADSGVHLNRLQFQQQQNSIHAAKQLDMQSSWVYETGRLCEPEVLNSLEETYSPFFRNNSEKMSMEDENFRKRKLPVVSSVVKVKKFNHDGEEEEEDDDYGSRTGSISSSVSVPAKPERRPSLPPSKQANKNLILKAISEAQESVTKTTNYSTVPQKQTLPVAPRTRTSQEELLAEVVQGQSRTPRISPPIKEEETKGDSVEKNQGTQQRQLLSRLQIDPVMAETLQMSQDYYDMESMVHADTRSFILKKPKLSEEVVVAPNQESGMKTADSLRVLSGHLMQTRDLVQPDKPASPKFIVTLDGVPSPPGYMSDQEEDMCFEGMKPVNQTAASNKGLRGLLHPQQLHLLSRQLEDPNGSFSNAEMSELSVAQKPEKLLERCKYWPACKNGDECAYHHPISPCKAFPNCKFAEKCLFVHPNCKYDAKCTKPDCPFTHVSRRIPVLSPKPAVAPPAPPSSSQLCRYFPACKKMECPFYHPKHCRFNTQCTRPDCTFYHPTINVPPRHALKWIRPQTSE	4
FIP1_HUMAN (protein, UniProt Q6UN15 1-594, looked up) Pre-mRNA 3'-end-processing …: MSAGEVERLVSELSGGTGGDEEEEWLYGGPWDVHVHSDLAKDLDENEVERPEEENASANPPSGIEDETAENGVPKPKVTETEDDSDSDSDDDEDDVHVTIGDIKTGAPQYGSYGTAPVNLNIKTGGRVYGTTGTKVKGVDLDAPGSINGVPLLEVDLDSFEDKPWRKPGADLSDYFNYGFNEDTWKAYCEKQKRIRMGLEVIPVTSTTNKITAEDCTMEVTPGAEIQDGRFNLFKVQQGRTGNSEKETALPSTKAEFTSPPSLFKTGLPPSRNSTSSQSQTSTASRKANSSVGKWQDRYGRAESPDLRRLPGAIDVIGQTITISRVEGRRRANENSNIQVLSERSATEVDNNFSKPPPFFPPGAPPTHLPPPPFLPPPPTVSTAPPLIPPPGFPPPPGAPPPSLIPTIESGHSSGYDSRSARAFPYGNVAFPHLPGSAPSWPSLVDTSKQWDYYARREKDRDRERDRDRERDRDRDRERERTRERERERDHSPTPSVFNSDEERYRYREYAERGYERHRASREKEERHRERRHREKEETRHKSSRSNSRRRHESEEGDSHRRHKHKKSKRSKEGKEAGSEPAPEQESTEATPAE	2
PLOD3_HUMAN (protein, UniProt O60568 25-738, looked up) Multifunctional procollagen …: SDRPRGRDPVNPEKLLVITVATAETEGYLRFLRSAEFFNYTVRTLGLGEEWRGGDVARTVGGGQKVRWLKKEMEKYADREDMIIMFVDSYDVILAGSPTELLKKFVQSGSRLLFSAESFCWPEWGLAEQYPEVGTGKRFLNSGGFIGFATTIHQIVRQWKYKDDDDDQLFYTRLYLDPGLREKLSLNLDHKSRIFQNLNGALDEVVLKFDRNRVRIRNVAYDTLPIVVHGNGPTKLQLNYLGNYVPNGWTPEGGCGFCNQDRRTLPGGQPPPRVFLAVFVEQPTPFLPRFLQRLLLLDYPPDRVTLFLHNNEVFHEPHIADSWPQLQDHFSAVKLVGPEEALSPGEARDMAMDLCRQDPECEFYFSLDADAVLTNLQTLRILIEENRKVIAPMLSRHGKLWSNFWGALSPDEYYARSEDYVELVQRKRVGVWNVPYISQAYVIRGDTLRMELPQRDVFSGSDTDPDMAFCKSFRDKGIFLHLSNQHEFGRLLATSRYDTEHLHPDLWQIFDNPVDWKEQYIHENYSRALEGEGIVEQPCPDVYWFPLLSEQMCDELVAEMEHYGQWSGGRHEDSRLAGGYENVPTVDIHMKQVGYEDQWLQLLRTYVGPMTESLFPGYHTKARAVMNFVVRYRPDEQPSLRPHHDSSTFTLNVALNHKGLDYEGGGCRFLRYDCVISSPRKGWALLHPGRLTHYHEGLPTTWGTRYIMVSFVDP	0
TIF1B_HUMAN (protein, UniProt Q13263 2-835, looked up) Transcription intermediary …: AASAAAASAAAASAASGSPGPGEGSAGGEKRSTAPSAAASASASAAASSPAGGGAEALELLEHCGVCRERLRPEREPRLLPCLHSACSACLGPAAPAAANSSGDGGAAGDGTVVDCPVCKQQCFSKDIVENYFMRDSGSKAATDAQDANQCCTSCEDNAPATSYCVECSEPLCETCVEAHQRVKYTKDHTVRSTGPAKSRDGERTVYCNVHKHEPLVLFCESCDTLTCRDCQLNAHKDHQYQFLEDAVRNQRKLLASLVKRLGDKHATLQKSTKEVRSSIRQVSDVQKRVQVDVKMAILQIMKELNKRGRVLVNDAQKVTEGQQERLERQHWTMTKIQKHQEHILRFASWALESDNNTALLLSKKLIYFQLHRALKMIVDPVEPHGEMKFQWDLNAWTKSAEAFGKIVAERPGTNSTGPAPMAPPRAPGPLSKQGSGSSQPMEVQEGYGFGSGDDPYSSAEPHVSGVKRSRSGEGEVSGLMRKVPRVSLERLDLDLTADSQPPVFKVFPGSTTEDYNLIVIERGAAAAATGQPGTAPAGTPGAPPLAGMAIVKEEETEAAIGAPPTATEGPETKPVLMALAEGPGAEGPRLASPSGSTSSGLEVVAPEGTSAPGGGPGTLDDSATICRVCQKPGDLVMCNQCEFCFHLDCHLPALQDVPGEEWSCSLCHVLPDLKEEDGSLSLDGADSTGVVAKLSPANQRKCERVLLALFCHEPCRPLHQLATDSTFSLDQPGGTLDLTLIRARLQEKLSPPYSSPQEFAQDVGRMFKQFNKLTEDKADVQSIIGLQRFFETRMNEAFGDTKFSAVLVEPPPMSLPGAGLSSQELSGGPGDGP	0.8
TF3C4_HUMAN (protein, UniProt Q9UKN8 1-822, looked up) General transcription factor …: MNTADQARVGPADDGPAPSGEEEGEGGGEAGGKEPAADAAPGPSAAFRLMVTRREPAVKLQYAVSGLEPLAWSEDHRVSVSTARSIAVLELICDVHNPGQDLVIHRTSVPAPLNSCLLKVGSKTEVAECKEKFAASKDPTVSQTFMLDRVFNPEGKALPPMRGFKYTSWSPMGCDANGRCLLAALTMDNRLTIQANLNRLQWVQLVDLTEIYGERLYETSYRLSKNEAPEGNLGDFAEFQRRHSMQTPVRMEWSGICTTQQVKHNNECRDVGSVLLAVLFENGNIAVWQFQLPFVGKESISSCNTIESGITSPSVLFWWEYEHNNRKMSGLIVGSAFGPIKILPVNLKAVKGYFTLRQPVILWKEMDQLPVHSIKCVPLYHPYQKCSCSLVVAARGSYVFWCLLLISKAGLNVHNSHVTGLHSLPIVSMTADKQNGTVYTCSSDGKVRQLIPIFTDVALKFEHQLIKLSDVFGSVRTHGIAVSPCGAYLAIITTEGMINGLHPVNKNYQVQFVTLKTFEEAAAQLLESSVQNLFKQVDLIDLVRWKILKDKHIPQFLQEALEKKIESSGVTYFWRFKLFLLRILYQSMQKTPSEALWKPTHEDSKILLVDSPGMGNADDEQQEEGTSSKQVVKQGLQERSKEGDVEEPTDDSLPTTGDAGGREPMEEKLLEIQGKIEAVEMHLTREHMKRVLGEVYLHTWITENTSIPTRGLCNFLMSDEEYDDRTARVLIGHISKKMNKQTFPEHCSLCKEILPFTDRKQAVCSNGHIWLRCFLTYQSCQSLIYRRCLLHDSIARHPAPEDPDWIKRLLQSPCPFCDSPVF	0.6667
RNZ2_HUMAN (protein, UniProt Q9BQ52 17-826, looked up) Zinc phosphodiesterase ELAC …: SQGRTISQAPARRERPRKDPLRHLRTREKRGPSGCSGGPNTVYLQVVAAGSRDSGAALYVFSEFNRYLFNCGEGVQRLMQEHKLKVARLDNIFLTRMHWSNVGGLSGMILTLKETGLPKCVLSGPPQLEKYLEAIKIFSGPLKGIELAVRPHSAPEYEDETMTVYQIPIHSEQRRGKHQPWQSPERPLSRLSPERSSDSESNENEPHLPHGVSQRRGVRDSSLVVAFICKLHLKRGNFLVLKAKEMGLPVGTAAIAPIIAAVKDGKSITHEGREILAEELCTPPDPGAAFVVVECPDESFIQPICENATFQRYQGKADAPVALVVHMAPASVLVDSRYQQWMERFGPDTQHLVLNENCASVHNLRSHKIQTQLNLIHPDIFPLLTSFRCKKEGPTLSVPMVQGECLLKYQLRPRREWQRDAIITCNPEEFIVEALQLPNFQQSVQEYRRSAQDGPAPAEKRSQYPEIIFLGTGSAIPMKIRNVSATLVNISPDTSLLLDCGEGTFGQLCRHYGDQVDRVLGTLAAVFVSHLHADHHTGLPSILLQRERALASLGKPLHPLLVVAPNQLKAWLQQYHNQCQEVLHHISMIPAKCLQEGAEISSPAVERLISSLLRTCDLEEFQTCLVRHCKHAFGCALVHTSGWKVVYSGDTMPCEALVRMGKDATLLIHEATLEDGLEEEAVEKTHSTTSQAISVGMRMNAEFIMLNHFSQRYAKVPLFSPNFSEKVGVAFDHMKVCFGDFPTMPKLIPPLKALFAGDIEEMEERREKRELRQVRAALLSRELAGGLEDGEPQQKRAHTEEPQAKKVRAQ	0.5
MCM3_HUMAN (protein, UniProt P25205 2-808, looked up) DNA replication licensing …: AGTVVLDDVELREAQRDYLDFLDDEEDQGIYQSKVRELISDNQYRLIVNVNDLRRKNEKRANRLLNNAFEELVAFQRALKDFVASIDATYAKQYEEFYVGLEGSFGSKHVSPRTLTSCFLSCVVCVEGIVTKCSLVRPKVVRSVHYCPATKKTIERRYSDLTTLVAFPSSSVYPTKDEENNPLETEYGLSVYKDHQTITIQEMPEKAPAGQLPRSVDVILDDDLVDKAKPGDRVQVVGTYRCLPGKKGGYTSGTFRTVLIACNVKQMSKDAQPSFSAEDIAKIKKFSKTRSKDIFDQLAKSLAPSIHGHDYVKKAILCLLLGGVERDLENGSHIRGDINILLIGDPSVAKSQLLRYVLCTAPRAIPTTGRGSSGVGLTAAVTTDQETGERRLEAGAMVLADRGVVCIDEFDKMSDMDRTAIHEVMEQGRVTIAKAGIHARLNARCSVLAAANPVYGRYDQYKTPMENIGLQDSLLSRFDLLFIMLDQMDPEQDREISDHVLRMHRYRAPGEQDGDAMPLGSAVDILATDDPNFSQEDQQDTQIYEKHDNLLHGTKKKKEKMVSAAFMKKYIHVAKIIKPVLTQESATYIAEEYSRLRSQDSMSSDTARTSPVTARTLETLIRLATAHAKARMSKTVDLQDAEEAVELVQYAYFKKVLEKEKKRKKRSEDESETEDEEEKSQEDQEQKRKRRKTRQPDAKDGDSYDPYDFSDTEEEMPQVHTPKTADSQETKESQKVELSESRLKAFKVALLDVFREAHAQSIGMNRLTESINRDSEEPFSSVEIQAALSKMQDDNQVMVSEGIIFLI	1.2
